According to patent publication US20260258397A1, “REAGENTS AND SYSTEMS FOR […]” (priority 2023, published 2026):
Entries after “also recorded” stand apart in the source; their conditions may differ. Like-named read-outs stand apart in the source and are kept apart here.

B1: PYR1^PIRI (protein)
chain: MPSELTPEERSELKNSIAEFHTYQLDPGSCSSLHAQRIHAPPELVWSIVRRFDKPQTYRHFIKSCSVEQNFEMRVGCTRDVIVISGLPANTMTERLDILDDERRVTGFSIIGGEHRLTSYKQVTTVHRFGKENRIWTVVLESYVVDMPEGNSEDDTRMTTDTVVKLNLQKLATAAEAMARNSGDGSGSQVT
B2: PYL2^WIN: PYL2 sensor (K64Q, F165A, V1661), SEQ ID NO: 37 (protein)
chain: MSSSPAVKGLTDEEQKTLEPVIKTYHQFEPDPTTCTSLITQRIHAPASVVWPLIRRFDNPERYQHFVKRCRLISGDGDVGSVREVTVISGLPASTSTERLEFVDDDHRVLSFRVVGGEHRLKNYKSVTSVNEFLNQDSGKVYTVVLESYTVDIPEGNTEEDTKMAIDTVVKLNLQKLGVAATSAPMHDDE
B3: PYR1^DIAZI (protein)
chain: MPSELTPGERSELKNSIAEFHTYQLDPGSCSSLHAQRIHAPPELVWSIVRRFDKPQTYKHFIKSCSVEQNFEMRVGCTRDYIVISGMPANTSTERLDILDDERRVTGYSIIGGEHRLTNYKSVTTVHRFEKENRIWTVVLESYVVDMPEGNSEDDTRVGVDTVVKLNLQKLATVAEAMARNSGDGSGSQVT

Key:
[1] = tested on: ΔN-HAB1; experiment: Ligand/receptor-mediated PP2C (ΔN-HAB1 phosphatase) inhibition by recombinant PYR1 sensors; type: biochemical, Arabidopsis; settings: for response of evolved organophosphate receptors to native ligand ABA: HAB1 inhibition and Y2H assays, ABA tested at 5000 nM in Y2H; for EC50: read-out: EC50, receptor-mediated inhibition of HAB1 phosphatase activity in vitro
Description: Coding sequences of the cannabinoid sensors were cloned into the protein expression vector pET28a to encode 6×His-tag-receptor fusions.
(§1) High-affinity sensors were tested for cross reaction using both Y2H and in vitro PP2C assays. […] Similar methods were used to characterize PYR1^PIRI and PYR1^WIN sensor selectivity and sensitivity.

[2] = tested on: Luc^N-PYR1/Luc^C-ΔN-HAB1; experiment: In vivo split NanoLuc luciferase complementation in yeast; type: cell-based, S. cerevisiae; settings: read-out: EC50 split luciferase reconstitution
Description: Ligand was added to yeast cultures 12 h prior to measuring cell luminescence. A sample of each culture was diluted to an OD600 of 0.2, 10 μL of which was transferred to a 96-well plate, the luciferase reagent mixture (Nano-Glo live cell substrate; Promega) diluted to a 1× concentration with DI water was added to the cell sample to a final volume of 200 μL. The relative luminescence signal (RLU) was measured using a Synergy™ Neo2 Multi-Mode Microplate Reader in luminescence detection mode for 30 minutes after the addition of the reagents. The RLU of each measured sample was taken as the average value of the time course once the signal had reached a plateau.
A protein complementation output assay of evolved PYR-based sensors was carried out by NanoLuc split luciferase (19). The larger fragment, LgBit (or Luc^N), was fused to N-terminus of PYR1 variants, while the small fragment, SmBit (or Luc^C) was fused to N-terminus of ΔN-HAB1. […] Ligand was added to yeast cultures 12 hour prior to measuring cell luminescence. […] The relative luminescence signal (RLU) was immediately measured continuously in a Synergy™ Neo2 Multi-Mode Microplate Reader over 30 minutes. The average value of RLU of each measured sample was taken once the measurements had reached a stable value. […]

[3] = tested on: HAB1; experiment: Y2H X-gal staining of evolved sensors: ligand responsiveness and cross reaction; type: cell-based, Arabidopsis; settings: Y2H, FIG. 7; WIN 55,212-2 or 4F-MDMB-BUTINACA
Description: as §1
The PYL2 coding sequence cloned in the Y2H pBD vector was used as template to incorporate the corresponding PYR1^WIN and PYR1^4F homologous residues via site directed mutagenesis using the QuikChange Lightning Multi Site-Directed mutagenesis kit (Agilent Technologies). Resulting clones PYL2^WIN (K64Q, F165A, V1661) and PYL2^4F (H119Q, Y124G, F165V, V166G) were sequence confirmed and incorporated into MAV99 harboring pACT-HAB1 and tested for ligand activation using uracil-independent growth and X-gal staining experiments. The same method was used to generate a PYL2^WIN version in a protein expression vector for crystallization studies.

| Molecule | response of evolved organophosphate receptors to native ligand ABA [1] | EC50 ([1]; sensor PYR1^PIRI, ligand pirimiphos-methyl) [nM] | EC50 ([2]; Luc^N-PYR1^PIRI/Luc^C-HAB1 in yeast, ligand pirimiphos-methyl) [nM] | ligand responsiveness of PYL2 transposed sensors [3] | EC50 ([1]; sensor PYR1^DIAZI, ligand diazinon) [nM] | EC50 ([2]; Luc^N-PYR1^DIAZI/Luc^C-HAB1 in yeast, ligand diazinon) [nM] |
| --- | --- | --- | --- | --- | --- | --- |
| B1 | no longer bind the native ligand ABA; also recorded: neither receptor was activated by ABA | 58 | 19 |  |  |  |
| B2 |  |  |  | nM ligand responsiveness |  |  |
| B3 | no longer bind the native ligand ABA; also recorded: neither receptor was activated by ABA |  |  |  | 36 | 24 |
